In this assay the target is T1, CD155 with a C-terminal V5 epitope tag, on Raji cells (UniProt P15151).
T1 sequence: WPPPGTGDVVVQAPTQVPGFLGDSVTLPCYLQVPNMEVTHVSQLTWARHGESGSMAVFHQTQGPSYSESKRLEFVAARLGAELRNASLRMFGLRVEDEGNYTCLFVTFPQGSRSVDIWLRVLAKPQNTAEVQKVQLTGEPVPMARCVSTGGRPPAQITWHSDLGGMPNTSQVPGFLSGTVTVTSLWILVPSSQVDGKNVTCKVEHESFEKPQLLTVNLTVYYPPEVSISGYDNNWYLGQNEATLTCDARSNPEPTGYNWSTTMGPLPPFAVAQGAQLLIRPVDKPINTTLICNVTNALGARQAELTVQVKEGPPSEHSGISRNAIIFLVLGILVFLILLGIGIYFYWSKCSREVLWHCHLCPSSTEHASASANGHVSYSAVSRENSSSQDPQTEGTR

B1: TIGIT-SNAP (wild-type TIGIT with a C-terminal SNAP-tag, on Jurkat cells) (receptor)
chain: MMTGTIETTGNISAEKGGSIILQCHLSSTTAQVTQVNWEQQDQLLAICNADLGWHISPSFKDRVAPGPGLGLTLQSLTVNDTGEYFCIYHTYPDGTYTGRIFLEVLESSVAEHGARFQIPLLGAMAATLVVICTAVIVVVALTRKKKALRIHSVEGDLRRKSAGQEEWSPSAPSPPGSCVQAEAAPAGLCGEQRGEDCAELHDYFNVLSYRSLGNCSFFTETG
Molecule B1 displayed an IL-2 release of Jurkat TIGIT-SNAP cells after 6 h with SEE-pulsed Raji-CD155 relative to Raji-CD111 co-cultures (ELISA) of 37% and a log2-fold decrease of IL-2 release of Jurkat TIGIT-SNAP cells with SEE-pulsed Raji-CD155 against Raji-CD111 (ELISA) of 1.45 log2 fold.

The record behind these values is PMC10439114.
